From patent US8691944 (RESEARCH FOUNDATION FOR THE STATE UNIVERSITY OF NEW YORK, dated 2014)

B1: EGF (ligand, UniProt P01133 971-1023, looked up)
chain: NSDSECPLSHDGYCLHDGVCMYIEALDKYACNCVVGYIGERCQYRDLKWWELR
B2: peptide 1 (QPSHISKYILRWRPKNSVGRWKEAT) (peptide)
peptide: QPSHISKYILRWRPKNSVGRWKEAT
notes: Synthetic peptide; also called FN634-658
B3: vascular endothelial growth factor A (VEGF-A) (ligand, UniProt P15692-4 27-191, looked up)
chain: APMAEGGGQNHHEVVKFMDVYQRSYCHPIETLVDIFQEYPDEIEYIFKPSCVPLMRCGGCCNDEGLECVPTEESNITMQIMRIKPHQGQHIGEMSFLQHNKCECRPKKDRARQENPCGPCSERRKHLFVQDPQTCKCSCKNTDSRCKARQLELNERTCRCDKPRR
B4: platelet-derived growth factor-BB (PDGF-BB) (ligand, UniProt P01127 82-190, looked up)
chain: SLGSLTIAEPAMIAECKTRTEVFEISRRLIDRTNANFLVWPPCVEVQRCSGCCNNRNVQCRPTQVQLRPVQVRKIEIVRKKPIFKKATVTLEDHLACKCETVAAARPVT
notes: Two B chains by its name BB

What was measured:
FNIII1 = target: T1, FNIII1 (human, UniProt P02751 610-702, limits assumed); assay: binding assay, method not restated
T1 construct: domain: FNIII1; Recombinant domain; also called first type III repeat of FN

FNIII12-14 [1] = target: T2, FNIII12-14 (human, UniProt P02751 1812-2082); assay: binding assay, method not restated
T2 construct: domain: FNIII12-14; Recombinant domain

[2] = target: T3, FNIII12-15 (H), heparinII-binding domain of fibronectin (human, UniProt P02751-10 1631-1987); assay: binding assay, method not restated
T3 construct: domain: FNIII12-15; Recombinant domain; also called HepII domain

FNIII3-6 [3] = target: T4, FNIII3-6 (human, UniProt P02751 810-1172, limits assumed); assay: binding assay, method not restated
T4 construct: domain: FNIII3-6; Recombinant domain

[4] = target: T5, FNIII8-11 (C), central cell-binding domain of fibronectin containing RGD (human, UniProt P02751 1357-1721); assay: binding assay, method not restated
T5 construct: domain: FNIII8-11; Recombinant domain

[5] = target: T6, FNIII12-V15 (HV), composite heparinII-binding and variably-spliced IIICS domains of fibronectin (human, UniProt P02751 1812-2288); assay: plasmon resonance
T6 construct: domain: FNIII12-V15; Recombinant domain made in E. coli; Some constructs carried GST at the C-terminus

intact fibronectin [6] = target: T7, intact fibronectin (UniProt P02751-8 32-2296, limits assumed); assay: equilibrium binding to FN adsorbed to a surface or coupled to agarose beads
T7 construct: also called FN; intact FN

[7] = target: T8, 70 kDa amino terminus of FN (FN70) (UniProt P02751 32-608, limits assumed); assay: equilibrium and kinetic binding
T8 construct: domain: 70 kDa amino terminus of FN (FN70); also called amino-terminal end of FN

FNIII1-7 [8] = target: T9, FNIII1-7 (UniProt P02751 610-1265, limits assumed); assay: equilibrium and kinetic binding
T9 construct: domain: FNIII1-7

[9] = target: B4; assay: peptide binding assay
[10] = target: transforming growth factor-β1 (TGF-β1) (UniProt P01137 279-390); assay: equilibrium binding
TGF-α = TGF-α (UniProt P01135 40-89); assay: binding assay, method not restated
EGF = target: B1; assay: binding assay, method not restated
FGF-1 = FGF-1 (UniProt P05230 16-155, limits assumed); assay: binding assay, method not restated
[11] = target: B4; assay: binding assay, method not restated
[12] = target: B4; assay: equilibrium binding
[13] = target: T8, 70 kDa amino terminus of FN (FN70); assay: binding assay, method not restated
FNIII1-11 = target: T10, FNIII1-11 (human, UniProt P02751-1 610-1630); assay: binding assay, method not restated
T10 construct: domain: FNIII1-11; Recombinant domain

intact fibronectin [14] = target: T7, intact fibronectin; assay: radiolabeled GF binding to intact FN, non linear regression
FNIII1-7 [15] = target: T9, FNIII1-7; assay: plasmon surface resonance, kinetic binding
[16] = target: T6, FNIII12-V15 (HV), composite …; assay: plasmon surface resonance, kinetic binding
[17] = target: T8, 70 kDa amino terminus of FN (FN70); assay: equilibrium binding, confirmed by surface plasmon resonance
FNIII12-14 [18] = target: T2, FNIII12-14; assay: binding assay, method not restated (plasmon resonance in the sentence before)
FNIII1-2 [19] = target: T11, FNIII1-2 (human, UniProt P02751 610-809, limits assumed); assay: surface plasmon resonance
T11 construct: domain: FNIII1-2; Recombinant domain

FNIII12-14 [20] = target: T2, FNIII12-14; assay: equilibrium binding
[21] = target: T3, FNIII12-15 (H), heparinII-binding …; assay: equilibrium binding
FNIII3-6 [22] = target: T4, FNIII3-6; assay: equilibrium binding
FNIII1-7 [23] = target: T9, FNIII1-7; assay: equilibrium binding
FNIII1-2 [24] = target: T11, FNIII1-2; assay: equilibrium binding
[25] = target: T6, FNIII12-V15 (HV), composite …; assay: equilibrium binding
FNIII12-13 = target: T12, FNIII12-13 (UniProt P02751 1812-1992); assay: equilibrium binding
T12 construct: domain: FNIII12-13

Chain of transforming growth factor-β1 (TGF-β1) (P01137 279-390 limits assumed): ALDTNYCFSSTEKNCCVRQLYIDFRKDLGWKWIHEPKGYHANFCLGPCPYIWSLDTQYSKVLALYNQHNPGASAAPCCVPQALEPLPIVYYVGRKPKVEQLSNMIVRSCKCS
T5 sequence (P02751 other isoform, or with tags, fused parts or gaps limits assumed): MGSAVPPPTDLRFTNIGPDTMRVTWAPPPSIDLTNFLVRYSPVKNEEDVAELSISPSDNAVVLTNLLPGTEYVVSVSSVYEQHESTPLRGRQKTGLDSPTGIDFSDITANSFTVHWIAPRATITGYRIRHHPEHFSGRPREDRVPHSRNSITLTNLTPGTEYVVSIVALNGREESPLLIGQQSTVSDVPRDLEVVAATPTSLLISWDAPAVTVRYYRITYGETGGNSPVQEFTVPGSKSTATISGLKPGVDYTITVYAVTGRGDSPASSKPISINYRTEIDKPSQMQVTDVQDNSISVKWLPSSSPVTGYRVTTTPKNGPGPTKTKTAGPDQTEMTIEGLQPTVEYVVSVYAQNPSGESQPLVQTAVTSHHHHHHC
Chain of TGF-α (P01135 40-89 limits assumed): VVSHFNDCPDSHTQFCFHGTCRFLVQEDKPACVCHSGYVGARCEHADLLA
T2 sequence (P02751 other isoform, or with tags, fused parts or gaps limits assumed): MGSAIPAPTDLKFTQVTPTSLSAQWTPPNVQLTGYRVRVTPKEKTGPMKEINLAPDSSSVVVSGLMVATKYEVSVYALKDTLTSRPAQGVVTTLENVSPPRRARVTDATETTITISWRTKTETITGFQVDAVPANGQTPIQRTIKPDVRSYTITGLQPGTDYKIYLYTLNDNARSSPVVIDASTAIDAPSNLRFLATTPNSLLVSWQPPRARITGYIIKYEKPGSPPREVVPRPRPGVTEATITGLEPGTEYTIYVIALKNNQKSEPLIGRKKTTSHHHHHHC
T6 sequence (P02751 other isoform, or with tags, fused parts or gaps limits assumed): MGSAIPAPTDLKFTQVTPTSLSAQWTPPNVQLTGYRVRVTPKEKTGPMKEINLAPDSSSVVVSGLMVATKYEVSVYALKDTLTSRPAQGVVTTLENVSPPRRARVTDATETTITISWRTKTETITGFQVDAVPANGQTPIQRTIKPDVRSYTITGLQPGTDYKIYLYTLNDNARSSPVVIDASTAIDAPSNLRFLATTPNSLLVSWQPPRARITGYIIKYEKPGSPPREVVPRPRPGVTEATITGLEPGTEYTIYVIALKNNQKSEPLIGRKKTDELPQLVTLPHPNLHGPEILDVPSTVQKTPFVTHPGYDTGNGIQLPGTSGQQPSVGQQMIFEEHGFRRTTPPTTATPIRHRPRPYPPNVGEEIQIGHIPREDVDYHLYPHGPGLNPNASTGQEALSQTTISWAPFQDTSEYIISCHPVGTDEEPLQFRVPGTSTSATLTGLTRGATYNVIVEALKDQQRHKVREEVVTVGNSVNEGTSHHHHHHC
Chain of FGF-1 (P05230 16-155 limits assumed): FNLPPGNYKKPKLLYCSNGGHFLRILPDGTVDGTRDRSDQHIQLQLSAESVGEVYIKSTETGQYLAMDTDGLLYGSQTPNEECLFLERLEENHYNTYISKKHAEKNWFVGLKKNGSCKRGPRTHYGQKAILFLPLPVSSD
T9 sequence (P02751 610-1265 limits assumed): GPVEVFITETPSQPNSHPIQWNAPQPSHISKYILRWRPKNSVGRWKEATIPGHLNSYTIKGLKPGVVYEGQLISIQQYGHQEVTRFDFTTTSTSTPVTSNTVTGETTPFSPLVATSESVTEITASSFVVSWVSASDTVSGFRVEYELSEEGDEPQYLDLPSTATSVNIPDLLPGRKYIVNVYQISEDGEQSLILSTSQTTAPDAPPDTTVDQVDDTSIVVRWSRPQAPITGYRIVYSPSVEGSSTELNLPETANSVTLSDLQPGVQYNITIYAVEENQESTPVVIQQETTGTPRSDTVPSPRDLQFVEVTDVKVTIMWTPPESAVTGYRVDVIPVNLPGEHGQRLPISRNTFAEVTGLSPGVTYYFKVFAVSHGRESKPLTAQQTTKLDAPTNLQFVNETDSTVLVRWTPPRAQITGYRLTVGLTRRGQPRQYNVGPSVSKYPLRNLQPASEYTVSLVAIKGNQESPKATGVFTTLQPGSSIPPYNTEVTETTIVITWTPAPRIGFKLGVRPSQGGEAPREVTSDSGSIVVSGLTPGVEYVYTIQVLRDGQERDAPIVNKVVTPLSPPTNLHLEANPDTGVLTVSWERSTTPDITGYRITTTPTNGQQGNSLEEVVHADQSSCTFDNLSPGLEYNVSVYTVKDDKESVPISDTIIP
T8 sequence (P02751 32-608 limits assumed): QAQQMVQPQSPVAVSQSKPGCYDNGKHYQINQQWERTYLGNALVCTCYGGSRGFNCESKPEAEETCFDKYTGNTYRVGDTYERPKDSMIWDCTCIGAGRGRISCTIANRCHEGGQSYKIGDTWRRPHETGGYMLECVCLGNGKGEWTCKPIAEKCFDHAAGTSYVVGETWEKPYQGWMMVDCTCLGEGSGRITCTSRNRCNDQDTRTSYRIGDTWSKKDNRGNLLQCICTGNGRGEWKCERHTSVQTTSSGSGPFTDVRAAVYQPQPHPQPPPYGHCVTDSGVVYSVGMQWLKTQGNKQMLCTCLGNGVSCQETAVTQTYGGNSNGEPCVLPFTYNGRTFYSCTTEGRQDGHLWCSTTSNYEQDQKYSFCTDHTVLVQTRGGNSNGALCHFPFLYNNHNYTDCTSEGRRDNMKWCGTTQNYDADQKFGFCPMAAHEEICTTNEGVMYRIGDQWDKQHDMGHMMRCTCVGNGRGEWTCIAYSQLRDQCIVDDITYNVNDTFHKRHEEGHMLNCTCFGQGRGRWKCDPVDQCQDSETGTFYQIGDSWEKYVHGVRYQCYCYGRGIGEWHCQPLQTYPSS
T11 sequence (P02751 other isoform, or with tags, fused parts or gaps limits assumed): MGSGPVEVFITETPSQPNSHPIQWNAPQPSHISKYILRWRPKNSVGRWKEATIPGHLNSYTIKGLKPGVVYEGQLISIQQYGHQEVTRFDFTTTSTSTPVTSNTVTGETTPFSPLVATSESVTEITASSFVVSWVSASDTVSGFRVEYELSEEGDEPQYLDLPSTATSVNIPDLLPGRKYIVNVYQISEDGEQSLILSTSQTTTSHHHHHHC
T3 sequence (P02751 other isoform, or with tags, fused parts or gaps limits assumed): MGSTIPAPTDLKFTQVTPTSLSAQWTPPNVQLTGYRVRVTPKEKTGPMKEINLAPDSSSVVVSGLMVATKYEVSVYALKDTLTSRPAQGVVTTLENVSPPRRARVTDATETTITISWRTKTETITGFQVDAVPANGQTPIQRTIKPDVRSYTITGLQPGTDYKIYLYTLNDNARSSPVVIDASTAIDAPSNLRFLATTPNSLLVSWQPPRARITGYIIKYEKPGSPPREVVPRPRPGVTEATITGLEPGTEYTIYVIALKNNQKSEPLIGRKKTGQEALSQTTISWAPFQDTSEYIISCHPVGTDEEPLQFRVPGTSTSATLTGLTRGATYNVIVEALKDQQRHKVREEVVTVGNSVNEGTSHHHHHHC
T4 sequence (P02751 other isoform, or with tags, fused parts or gaps limits assumed): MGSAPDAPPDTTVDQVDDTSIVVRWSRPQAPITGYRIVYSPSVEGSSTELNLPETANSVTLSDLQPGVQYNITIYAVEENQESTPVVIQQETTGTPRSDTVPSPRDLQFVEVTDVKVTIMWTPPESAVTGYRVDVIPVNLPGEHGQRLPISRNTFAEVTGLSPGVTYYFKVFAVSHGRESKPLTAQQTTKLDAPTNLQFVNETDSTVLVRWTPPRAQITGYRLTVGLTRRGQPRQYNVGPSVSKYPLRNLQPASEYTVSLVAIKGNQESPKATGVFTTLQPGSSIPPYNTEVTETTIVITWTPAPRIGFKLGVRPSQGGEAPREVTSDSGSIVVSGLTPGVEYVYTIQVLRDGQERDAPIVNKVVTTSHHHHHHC
T10 sequence (P02751 other isoform, or with tags, fused parts or gaps limits assumed): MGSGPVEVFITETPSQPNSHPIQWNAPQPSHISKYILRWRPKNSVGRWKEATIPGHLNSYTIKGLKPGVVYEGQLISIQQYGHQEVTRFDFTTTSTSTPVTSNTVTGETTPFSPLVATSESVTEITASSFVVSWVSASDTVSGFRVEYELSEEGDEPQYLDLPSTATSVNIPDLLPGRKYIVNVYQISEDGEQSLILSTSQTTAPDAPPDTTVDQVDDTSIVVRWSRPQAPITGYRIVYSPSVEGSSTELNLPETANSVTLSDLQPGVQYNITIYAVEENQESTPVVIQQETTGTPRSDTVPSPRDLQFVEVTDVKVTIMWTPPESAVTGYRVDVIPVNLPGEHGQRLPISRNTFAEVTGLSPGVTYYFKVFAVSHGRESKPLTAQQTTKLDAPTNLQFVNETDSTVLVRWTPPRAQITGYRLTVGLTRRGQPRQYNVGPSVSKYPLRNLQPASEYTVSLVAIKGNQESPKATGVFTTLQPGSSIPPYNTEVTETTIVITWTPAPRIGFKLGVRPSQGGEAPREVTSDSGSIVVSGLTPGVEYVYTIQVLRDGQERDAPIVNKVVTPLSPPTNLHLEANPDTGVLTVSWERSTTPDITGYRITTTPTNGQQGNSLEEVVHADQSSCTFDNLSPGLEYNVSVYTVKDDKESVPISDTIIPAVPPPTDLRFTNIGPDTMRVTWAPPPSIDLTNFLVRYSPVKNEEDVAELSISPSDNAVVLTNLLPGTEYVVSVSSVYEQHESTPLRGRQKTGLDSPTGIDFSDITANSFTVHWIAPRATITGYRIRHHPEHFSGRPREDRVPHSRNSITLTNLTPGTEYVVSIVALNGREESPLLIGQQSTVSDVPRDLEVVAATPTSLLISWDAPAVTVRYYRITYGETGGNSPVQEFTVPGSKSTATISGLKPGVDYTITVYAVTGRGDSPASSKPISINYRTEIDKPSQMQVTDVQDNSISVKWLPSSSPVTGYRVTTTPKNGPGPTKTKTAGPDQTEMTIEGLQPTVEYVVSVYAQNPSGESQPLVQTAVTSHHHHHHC
T1 sequence (P02751 other isoform, or with tags, fused parts or gaps limits assumed): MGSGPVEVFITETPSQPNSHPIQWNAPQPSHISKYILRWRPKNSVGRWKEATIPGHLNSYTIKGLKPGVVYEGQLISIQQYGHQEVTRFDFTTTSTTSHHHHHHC

## B1
FNIII1
  binding result: no binding
FNIII12-14 [1]
  binding result: no binding
[2]
  binding result: no binding
FNIII3-6 [3]
  binding result: no binding
[4]
  binding result: no binding
[5]
  binding result: no binding
Intact fibronectin [6]
  binding result: no binding
[7]
  binding result: no binding
FNIII1-7 [8]
  binding result: no binding

## QPSHISKYILRWRPK [FN634-648 (QPSHISKYILRWRPK)]
[9]
  Kd: 450 nM
[10]
  Kd: 440 nM

## QPSHISKY [FN634-641 (QPSHISKY)]
[9]
  binding result: no binding

## QLISIQQYGHQEVTRFDFTTTSTST (Synthetic peptide) [peptide 2 (QLISIQQYGHQEVTRFDFTTTSTST)]
TGF-α
  binding result: no binding
EGF
  binding result: no binding
FGF-1
  binding result: no binding
[11]
  Kd: 110 nM
[10]
  Kd: 270 nM

## ILRWRPKNSVGRWK
[10]
  Kd: 400 nM

## KNSVGRWKEATIPGHLNSYT [FN648-667 (KNSVGRWKEATIPGHLNSYT)]
[9]
  binding result: no binding

## YILRWRPKNSVGRW [FN641-654 (YILRWRPKNSVGRW)]
[9]
  binding result: no binding

## B2
TGF-α
  binding result: no binding
EGF
  binding result: no binding
FGF-1
  binding result: no binding
[10]
  Kd: 130 nM
[12]
  Kd: 250 nM

## B3
[13]
  binding result: no binding
[4]
  binding result: no binding
FNIII1-11
  binding result: no binding
[5]
  Kd: 0.6 nM

## QPSVGQQMIFEEHGFRRTTPPTTAT (Synthetic peptide) [peptide 4 (QPSVGQQMIFEEHGFRRTTPPTTAT)]
TGF-α
  binding result: no binding
EGF
  binding result: no binding
FGF-1
  binding result: no binding
[10]
  Kd: 100 nM

## WNAPQPSHISKYILRWRPK [FN630-648 (WNAPQPSHISKYILRWRPK)]
[9]
  Kd: 340 nM

## B4
[4]
  binding result: no binding
Intact fibronectin [14]
  Kd: 49 nM
FNIII1-7 [15]
  Kd: 100 nM
[16]
  Kd: 17 nM
[17]
  binding result: no binding
FNIII12-14 [18]
  Kd: 55 nM
FNIII1-2 [19]
  Kd: 9.1 nM
FNIII12-14 [20]
  Kd: 35 nM
[21]
  Kd: 6.8 nM
FNIII3-6 [22]
  binding result: no binding
FNIII1-7 [23]
  Kd: 75 nM
FNIII1-2 [24]
  Kd: 37 nM
[25]
  Kd: 21 nM
FNIII12-13
  Kd: 75 nM

## NGQTPIQRTIKPDVRSYTITGLQPGT (Synthetic peptide) [peptide 3 (NGQTPIQRTIKPDVRSYTITGLQPGT)]
TGF-α
  binding result: no binding
EGF
  binding result: no binding
FGF-1
  binding result: no binding
[10]
  Kd: 140 nM
